{"source": "the supplement of paper PMC11316812", "key": {"[1]": {"tested_on": "hTERT-HMEC", "experiment": "percentage of EdU-negative (G0-arrested) nuclei per well, 72 h; higher = more G0 arrest", "details": "reference: sequence is the full UniProt precursor, the tested protein was the secreted form or ectodomain"}, "[2]": {"tested_on": "MCF7", "experiment": "percentage of EdU-negative (G0-arrested) nuclei per well, 72 h; higher = more G0 arrest", "details": "reference: sequence is the full UniProt precursor, the tested protein was the secreted form or ectodomain"}, "[3]": {"details": "protein concentration 0.0225 µM"}, "[4]": {"details": "protein concentration 0.0211429 µM"}, "[5]": {"details": "protein concentration 0.211429 µM"}, "[6]": {"details": "protein concentration 0.01775 µM"}, "[7]": {"details": "protein concentration 0.1775 µM"}, "[8]": {"details": "protein concentration 0.0257143 µM"}, "[9]": {"details": "protein concentration 0.257143 µM"}, "[10]": {"details": "protein concentration 0.02588 µM"}, "[11]": {"details": "protein concentration 0.2588 µM"}}, "note": "± gives the standard deviation of the averaged measurements.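 Note: secreted proteins added to cultured cells, EdU pulse at the end, nuclei found by Hoechst imaging, EdU status from nuclear versus surrounding ring intensity ratio, PBS as neutral control.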", "data": [{"sequence": "MKLGLLCALLSLLAGHGWADTRAIGAEECRPNSQPWQAGLFHLTRLFCGATLISDRWLLTAAHCRKPYLWVRLGEHHLWKWEGPEQLFRVTDFFPHPGFNKDLSANDHNDDIMLIRLPRQARLSPAVQPLNLSQTCVSPGMQCLISGWGAVSSPKALFPVTLQCANISILENKLCHWAYPGHISDSMLCAGLWEGGRGSCQGDSGGPLVCNGTLAGVVSGGAEPCSRPRRPAVYTSVCHYLDWIQEIMEN [Q9UKQ9]", "values": [{"measurement": "percentage of EdU-negative", "setting": "[1]; [3]", "result": "5.253 ± 0.046", "unit": "%"}, {"measurement": "percentage of EdU-negative", "setting": "[1]; protein concentration 0.225 µM", "result": "5.62 ± 1.2", "unit": "%"}, {"measurement": "percentage of EdU-negative", "setting": "[2]; [3]", "result": "26.66 ± 0.14", "unit": "%"}, {"measurement": "percentage of EdU-negative", "setting": "[2]; protein concentration 0.225 µM", "result": "29.4 ± 2.3", "unit": "%"}]}, {"sequence": "MMDIYVCLKRPSWMVDNKRMRTASNFQWLLSTFILLYLMNQVNSQKKGAPHDLKCVTNNLQVWNCSWKAPSGTGRGTDYEVCIENRSRSCYQLEKTSIKIPALSHGDYEITINSLHDFGSSTSKFTLNEQNVSLIPDTPEILNLSADFSTSTLYLKWNDRGSVFPHRSNVIWEIKVLRKESMELVKLVTHNTTLNGKDTLHHWSWASDMPLECAIHFVEIRCYIDNLHFSGLEEWSDWSPVKNISWIPDSQTKVFPQDKVILVGSDITFCCVSQEKVLSALIGHTNCPLIHLDGENVAIKIRNISVSASSGTNVVFTTEDNIFGTVIFAGYPPDTPQQLNCETHDLKEIICSWNPGRVTALVGPRATSYTLVESFSGKYVRLKRAEAPTNESYQLLFQMLPNQEIYNFTLNAHNPLGRSQSTILVNITEKVYPHTPTSFKVKDINSTAVKLSWHLPGNFAKINFLCEIEIKKSNSVQEQRNVTIKGVENSSYLVALDKLNPYTLYTFRIRCSTETFWKWSKWSNKKQHLTTEASPSKGPDTWREWSSDGKNLIIYWKPLPINEANGKILSYNVSCSSDEETQSLSEIPDPQHKAEIRLDKNDYIISVVAKNSVGSSPPSKIASMEIPNDDLKIEQVVGMGKGILLTWHYDPNMTCDYVIKWCNSSRSEPCLMDWRKVPSNSTETVIESDEFRPGIRYNFFLYGCRNQGYQLLRSMIGYIEELAPIVAPNFTVEDTSADSILVKWEDIPVEELRGFLRGYLFYFGKGERDTSKMRVLESGRSDIKVKNITDISQKTLRIADLQGKTSYHLVLRAYTDGGVGPEKSMYVVTKENSVGLIIAILIPVAVAVIVGVVTSILCYRKREWIKETFYPDIPNPENCKALQFQKSVCEGSSALKTLEMNPCTPNNVEVLETRSAFPKIEDTEIISPVAERPEDRSDAEPENHVVVSYCPPIIEEEIPNPAADEAGGTAQVIYIDVQSMYQPQAKPEEEQENDPVGGAGYKPQMHLPINSTVEDIAAEEDLDKTAGYRPQANVNTWNLVSPDSPRSIDSNSEIVSFGSPCSINSRQFLIPPKDEDSPKSNGGGWSFTNFFQNKPND", "values": [{"measurement": "percentage of EdU-negative", "setting": "[1]; [4]", "result": "4.99 ± 0.47", "unit": "%"}, {"measurement": "percentage of EdU-negative", "setting": "[1]; [5]", "result": "7.62 ± 0.7", "unit": "%"}, {"measurement": "percentage of EdU-negative", "setting": "[2]; [4]", "result": "24.2 ± 2", "unit": "%"}, {"measurement": "percentage of EdU-negative", "setting": "[2]; [5]", "result": "26.8 ± 0.8", "unit": "%"}]}, {"sequence": "MRPPACWWLLAPPALLALLTCSLAFGLASEDTKKEVKQSQDLEKSGISRKNDIDLKGIVFVIQSQSNSFHAKRAEQLKKSILKQAADLTQELPSVLLLHQLAKQEGAWTILPLLPHFSVTYSRNSSWIFFCEEETRIQIPKLLETLRRYDPSKEWFLGKALHDEEATIIHHYAFSENPTVFKYPDFAAGWALSIPLVNKLTKRLKSESLKSDFTIDLKHEIALYIWDKGGGPPLTPVPEFCTNDVDFYCATTFHSFLPLCRKPVKKKDIFVAVKTCKKFHGDRIPIVKQTWESQASLIEYYSDYTENSIPTVDLGIPNTDRGHCGKTFAILERFLNRSQDKTAWLVIVDDDTLISISRLQHLLSCYDSGEPVFLGERYGYGLGTGGYSYITGGGGMVFSREAVRRLLASKCRCYSNDAPDDMVLGMCFSGLGIPVTHSPLFHQARPVDYPKDYLSHQVPISFHKHWNIDPVKVYFTWLAPSDEDKARQETQKGFREEL [Q6Y288]", "values": [{"measurement": "percentage of EdU-negative", "setting": "[1]; [3]", "result": "4.96 ± 0.058", "unit": "%"}, {"measurement": "percentage of EdU-negative", "setting": "[1]; protein concentration 0.225 µM", "result": "9.95 ± 0.45", "unit": "%"}, {"measurement": "percentage of EdU-negative", "setting": "[2]; [3]", "result": "23.9 ± 0.6", "unit": "%"}, {"measurement": "percentage of EdU-negative", "setting": "[2]; protein concentration 0.225 µM", "result": "28.2 ± 2.5", "unit": "%"}]}, {"sequence": "MASWLRRKLRGKRRPVIAFCLLMILSAMAVTRFPPQRPSAGPDPGPMEPQGVTGAPATHIRQALSSSRRQRARNMGFWRSRALPRNSILVCAEEQGHRARVDRSRESPGGDLRHPGRVRRDITLSGHPRLSTQHVVLLREDEVGDPGTKDLGHPQHGSPIQETQSEVVTLVSPLPGSDMAALPAWRATSGLTLWPHTAEGRDLLGAENRALTGGQQAEDPTLASGAHQWPGSVEKLQGSVWCDAETLLSSSRTGGQAPPWLTDHDVQMLRLLAQGEVVDKARVPAHGQVLQVGFSTEAALQDLSSPRLSQLCSQGLCGLIKRPGDLPEVLSFHVDRVLGLRRSLPAVARRFHSPLLPYRYTDGGARPVIWWAPDVQHLSDPDEDQNSLALGWLQYQALLAHSCNWPGQAPCPGIHHTEWARLALFDFLLQVHDRLDRYCCGFEPEPSDPCVEERLREKCQNPAELRLVHILVRSSDPSHLVYIDNAGNLQHPEDKLNFRLLEGIDGFPESAVKVLASGCLQNMLLKSLQMDPVFWESQGGAQGLKQVLQTLEQRGQVLLGHIQKHNLTLFRDEDP [Q9UFP1]", "values": [{"measurement": "percentage of EdU-negative", "setting": "[1]; [6]", "result": "4.53 ± 0.69", "unit": "%"}, {"measurement": "percentage of EdU-negative", "setting": "[1]; [7]", "result": "4.83 ± 0.99", "unit": "%"}, {"measurement": "percentage of EdU-negative", "setting": "[2]; [6]", "result": "25.4 ± 2.1", "unit": "%"}, {"measurement": "percentage of EdU-negative", "setting": "[2]; [7]", "result": "24.5 ± 4.3", "unit": "%"}]}, {"sequence": "MAPAMESPTLLCVALLFFAPDGVLAVPQKPKVSLNPPWNRIFKGENVTLTCNGNNFFEVSSTKWFHNGSLSEETNSSLNIVNAKFEDSGEYKCQHQQVNESEPVYLEVFSDWLLLQASAEVVMEGQPLFLRCHGWRNWDVYKVIYYKDGEALKYWYENHNISITNATVEDSGTYYCTGKVWQLDYESEPLNITVIKAPREKYWLQFFIPLLVVILFAVDTGLFISTQQQVTFLLKIKRTRKGFRLLNPHPKPNPKNN", "values": [{"measurement": "percentage of EdU-negative", "setting": "[1]; [8]", "result": "4.74 ± 1.5", "unit": "%"}, {"measurement": "percentage of EdU-negative", "setting": "[1]; [9]", "result": "5.8 ± 0.29", "unit": "%"}, {"measurement": "percentage of EdU-negative", "setting": "[2]; [8]", "result": "24.7 ± 1.3", "unit": "%"}, {"measurement": "percentage of EdU-negative", "setting": "[2]; [9]", "result": "25.9 ± 1.7", "unit": "%"}]}, {"sequence": "MEPPGDWGPPPWRSTPKTDVLRLVLYLTFLGAPCYAPALPSCKEDEYPVGSECCPKCSPGYRVKEACGELTGTVCEPCPPGTYIAHLNGLSKCLQCQMCDPAMGLRASRNCSRTENAVCGCSPGHFCIVQDGDHCAACRAYATSSPGQRVQKGGTESQDTLCQNCPPGTFSPNGTLEECQHQTKCSWLVTKAGAGTSSSHWVWWFLSGSLVIVIVCSTVGLIICVKRRKPRGDVVKVIVSVQRKRQEAEGEATVIEALQAPPDVTTVAVEETIPSFTGRSPNH [F6Q0M4]", "values": [{"measurement": "percentage of EdU-negative", "setting": "[1]; [10]", "result": "5.28 ± 1.9", "unit": "%"}, {"measurement": "percentage of EdU-negative", "setting": "[1]; [11]", "result": "6.34 ± 0.056", "unit": "%"}, {"measurement": "percentage of EdU-negative", "setting": "[2]; [10]", "result": "25.05 ± 0.09", "unit": "%"}, {"measurement": "percentage of EdU-negative", "setting": "[2]; [11]", "result": "27.5 ± 1.3", "unit": "%"}]}, {"sequence": "MIRTLLLSTLVAGALSCGVSTYAPDMSRMLGGEEARPNSWPWQVSLQYSSNGQWYHTCGGSLIANSWVLTAAHCISSSGIYRVMLGQHNLYVAESGSLAVSVSKIVVHKDWNSDQVSKGNDIALLKLANPVSLTDKIQLACLPPAGTILPNNYPCYVTGWGRLQTNGALPDDLKQGQLLVVDYATCSSSGWWGSTVKTNMICAGGDGVICTCNGDSGGPLNCQASDGRWEVHGIGSLTSVLGCNYYYKPSIFTRVSNYNDWINSVIANN", "values": [{"measurement": "percentage of EdU-negative", "setting": "[1]; [3]", "result": "4.64 ± 0.17", "unit": "%"}, {"measurement": "percentage of EdU-negative", "setting": "[1]; protein concentration 0.225 µM", "result": "5.75 ± 0.53", "unit": "%"}, {"measurement": "percentage of EdU-negative", "setting": "[2]; [3]", "result": "22.3 ± 2.4", "unit": "%"}, {"measurement": "percentage of EdU-negative", "setting": "[2]; protein concentration 0.225 µM", "result": "26.3 ± 0.6", "unit": "%"}]}]}
